# Source: the supplement of paper PMC10126150
# ± gives the standard deviation of the averaged measurements.
# System: ATP
# Test: switch fluorescence ratio, 500 uM ATP over buffer (Cy3 cluster intensity, sum of 5 cycles each) (fold (ratio)); higher = stronger signal-on switching upon ATP binding; sequences stand for … in TCGTCGGCAGCGTCAGATGTGTATAAGAGACAGTTTTTTTTTTTTTTTTTTTTTTTTT…TC
# Settings: aptamer strand: ATP DNA aptamer (quencher-CACCTGGGGGAGTATTGCGGAGGAAGG + anchor), 100 nM annealed; ATP concentration: 500 uM
# How it was run: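 Imaging in selection buffer was followed by imaging after 15 min with 500 uM ATP at 22 °C, for Cy3-labelled switching-strand clusters annealed to 100 nM quencher-labelled ATP aptamer on a modified Illumina MiSeq flow-cell. Five of these buffer/ATP cycles ran, separated by NaOH stripping and re-annealing. The fluorescence ratio per cluster is summed target-cycle over summed buffer-cycle Cy3 intensity, averaged per switch-domain sequence; clusters outside 100-1000 RFU were removed.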
# 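Further: ATP exposure 15 min at 22 °C before imaging.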
row,Sequence,switch fluorescence ratio
1,GAGGTTTCAC,0.965 ± 0.023
2,GAGGTTTCGT,0.988 ± 0.02
3,GAGGTTTCTA,0.993 ± 0.038
4,GAGTAACCTG,1.01 ± 0.071
5,GAGTAAGCAA,1.64 ± 0.084
6,GAGTACGCTA,3.07 ± 1.2
7,GAGTACTCCT,1.04 ± 0.04
8,GAGTACTCGT,1.03 ± 0.034
9,GAGTAGCGGA,0.999 ± 0.042
10,GAGTATAGAT,1.001 ± 0.0034
11,GAGTATGGGT,1 ± 0.021
12,GAGTCAATAG,2.98 ± 0.047
13,GAGTCACAGT,1 ± 0.057
14,GAGTCAGAAT,1.01 ± 0.013
15,GAGTCATGTG,1.01 ± 0.037
16,GAGTCCATGG,0.985 ± 0.013
17,GAGTCGGCGG,0.9893 ± 0.0023
18,GAGTCGGGGG,0.985 ± 0.01
19,GAGTCGGGGT,1.01 ± 0.027
20,GAGTGAGGGC,0.9957 ± 0.003
21,GAGTGAGTAC,1 ± 0.055
22,GAGTGAGTAT,0.9731 ± 0.0071
23,GAGTGATTTA,1.01 ± 0.035
24,GAGTGCCTGG,1.02 ± 0.012
25,GAGTGCTTAA,0.971 ± 0.022

row,Sequence,switch fluorescence ratio
1,GAGTGGCTCT,0.968 ± 0.026
2,GAGTGGGAGG,1.02 ± 0.026
3,GAGTGGGCCT,0.963 ± 0.044
4,GAGTGGTCAG,0.9638 ± 0.0077
5,GAGTGTATTT,1.02 ± 0.016
6,GAGTTAAAAG,1.01 ± 0.02
7,GAGTTAGTAA,0.999 ± 0.045
8,GAGTTAGTTA,0.989 ± 0.028
9,GAGTTATGTA,0.997 ± 0.016
10,GAGTTGAGGA,0.98 ± 0.014
11,GAGTTGGGGG,1.02 ± 0.012
12,GAGTTTATGT,1.01 ± 0.022
13,GAGTTTATTA,0.994 ± 0.021
14,GAGTTTGGTG,0.94 ± 0.033
15,GAGTTTGTAT,0.961 ± 0.028
16,GAGTTTTGGT,1.03 ± 0.019
17,GATAAAAATA,0.998 ± 0.018
18,GATAAAGACG,0.9893 ± 0.0059
19,GATAACGTTT,0.99 ± 0.017
20,GATAAGAGCC,1.008 ± 0.0024
21,GATAAGGGGT,0.981 ± 0.035
22,GATAATAGGT,0.993 ± 0.016
23,GATAATGGTA,1.008 ± 0.005
24,GATAATTGGT,0.998 ± 0.012
25,GATAATTTTG,0.989 ± 0.027

row,Sequence,switch fluorescence ratio
1,GATACATTGC,1.07 ± 0.029
2,GATACTCGCG,1.03 ± 0.0056
3,GATACTGTGA,0.995 ± 0.023
4,GATACTTCTA,0.972 ± 0.026
5,GATAGAAAGA,0.964 ± 0.025
6,GATAGACGAG,1.03 ± 0.043
7,GATAGACGGA,0.99171 ± 0.00018
8,GATAGACTCT,0.975 ± 0.029
9,GATAGAGCAT,1.01 ± 0.013
10,GATAGATAGA,0.9957 ± 0.002
11,GATAGATTAG,0.998 ± 0.0038
12,GATAGCAGCG,1.01 ± 0.064
13,GATAGCTCTG,1.02 ± 0.021
14,GATAGCTGGT,0.981 ± 0.025
15,GATAGCTTAG,0.9935 ± 0.0071
16,GATAGGGGCT,0.938 ± 0.042
17,GATAGGGGGA,0.984 ± 0.058
18,GATAGGTAAG,0.962 ± 0.025
19,GATAGGTTGT,1.02 ± 0.035
20,GATAGTAGC,0.978 ± 0.024
21,GATAGTCTTG,0.985 ± 0.023
22,GATAGTGGTT,1.022 ± 0.0078
23,GATAGTGTAG,1.03 ± 0.0034
24,GATAGTTGGG,0.988 ± 0.02
25,GATATAAGCT,1.05 ± 0.066

row,Sequence,switch fluorescence ratio
1,GATATAGAGG,0.986 ± 0.055
2,GATATAGCTC,0.999 ± 0.038
3,GATATAGGGT,0.983 ± 0.018
4,GATATATAGA,0.998 ± 0.032
5,GATATATTCG,1 ± 0.016
6,GATATCCGTT,0.976 ± 0.016
7,GATATCTCCT,1.09 ± 0.011
8,GATATGCTGG,0.987 ± 0.018
9,GATATGGATG,0.96 ± 0.032
10,GATATGGGTG,1.04 ± 0.049
11,GATATGTGGT,0.9989 ± 0.004
12,GATATTCTTT,0.988 ± 0.018
13,GATATTGAGT,0.9648 ± 0.0073
14,GATATTGCTA,0.975 ± 0.03
15,GATATTGGCG,0.956 ± 0.013
16,GATATTGTAG,0.986 ± 0.026
17,GATATTTAAG,0.988 ± 0.042
18,GATATTTTGA,1.02 ± 0.019
19,GATATTTTTC,1.035 ± 0.0096
20,GATCAAACGG,1 ± 0.036
21,GATCAATTAA,0.9942 ± 0.007
22,GATCAGAGGA,1.05 ± 0.039
23,GATCATAATG,1.01 ± 0.021
24,GATCATGCGG,0.9854 ± 0.0089
25,GATCCGGGTG,1.38 ± 0.45

row,Sequence,switch fluorescence ratio
1,GATCCTGAAC,1.37 ± 0.12
2,GATCGCTAGG,0.984 ± 0.035
3,GATCGCTCGG,1.01 ± 0.02
4,GATCGGCGTG,1 ± 0.015
5,GATCGGGACT,0.9826 ± 0.0047
6,GATCGGGCTA,0.9664 ± 0.0014
7,GATCGGGCTG,0.903 ± 0.051
8,GATCGTATGT,0.9838 ± 0.0013
9,GATCGTTGGT,0.991 ± 0.021
10,GATCGTTTGT,1.01 ± 0.021
11,GATCTACCCA,1.028 ± 0.0089
12,GATCTACTTG,0.995 ± 0.017
13,GATCTGGTTT,0.998 ± 0.056
14,GATCTGTGCG,0.972 ± 0.032
15,GATCTTATCG,0.984 ± 0.026
16,GATCTTATTC,0.98506 ± 0.00068
17,GATGAAAAAT,0.975 ± 0.024
18,GATGAAGAAA,1.025 ± 0.0026
19,GATGAATCGG,0.973 ± 0.012
20,GATGAGAGGG,1.002 ± 0.0059
21,GATGAGATTT,0.972 ± 0.046
22,GATGAGTGGT,0.979 ± 0.02
23,GATGAGTTAG,0.973 ± 0.017
24,GATGAGTTGA,0.988 ± 0.02
25,GATGATATTG,0.992 ± 0.012

row,Sequence,switch fluorescence ratio
1,GATGATCGGG,1.02 ± 0.013
2,GATGATGGAG,1.02 ± 0.011
3,GATGATTATC,0.986 ± 0.022
4,GATGATTCGG,0.984 ± 0.037
5,GATGCACTCC,1.911 ± 0.0078
6,GATGCAGCGA,1.107 ± 0.011
7,GATGCAGGCC,0.892 ± 0.017
8,GATGCCGGGA,1.02 ± 0.038
9,GATGCGAGGT,0.952 ± 0.02
10,GATGCTCGAA,0.989 ± 0.025
11,GATGCTTTTT,1.02 ± 0.018
12,GATGGAAACT,1.008 ± 0.0072
13,GATGGAAGTT,1 ± 0.018
14,GATGGACATA,1.031 ± 0.0015
15,GATGGCCGCG,1.03 ± 0.024
16,GATGGGATGC,1.07 ± 0.071
17,GATGGGCACC,1.01 ± 0.012
18,GATGGGCGGT,0.9773 ± 0.0094
19,GATGGGGGAA,0.986 ± 0.049
20,GATGGGGGTC,1.21 ± 0.34
21,GATGGGTATT,0.968 ± 0.015
22,GATGGGTCTA,0.966 ± 0.029
23,GATGGTAAAC,1.05 ± 0.056
24,GATGGTAGCC,0.9862 ± 0.0098
25,GATGGTGTGA,0.978 ± 0.014

row,Sequence,switch fluorescence ratio
1,GATGGTTGCG,1.02 ± 0.022
2,GATGGTTGGA,0.9825 ± 0.0056
3,GATGGTTTTT,1 ± 0.016
4,GATGTACCGC,1.12 ± 0.042
5,GATGTAGATA,0.9778 ± 0.0032
6,GATGTAGGGG,0.999 ± 0.024
7,GATGTAGGTT,0.98 ± 0.029
8,GATGTAGTTT,0.993 ± 0.027
9,GATGTCACGA,1.03 ± 0.028
10,GATGTCAGGC,0.996 ± 0.01
11,GATGTCTATC,1.01 ± 0.011
12,GATGTGCGTG,0.9956 ± 0.0091
13,GATGTGGCTT,0.961 ± 0.015
14,GATGTGGTGC,1.016 ± 0.0038
15,GATGTGTCTG,0.999 ± 0.026
16,GATGTTATTA,0.979 ± 0.038
17,GATGTTTCAT,0.979 ± 0.018
18,GATGTTTTTC,0.97003 ± 0.00087
19,GATTAAAAAG,0.99 ± 0.062
20,GATTAAAAT,1.01 ± 0.013
21,GATTAAATAT,1.02 ± 0.012
22,GATTAAATTA,1.01 ± 0.021
23,GATTAAATTT,1.01 ± 0.033
24,GATTAATGGG,0.995 ± 0.023
25,GATTACCAAG,1.03 ± 0.025

row,Sequence,switch fluorescence ratio
1,GATTACGGCC,1.06 ± 0.035
2,GATTAGGTGT,1.098 ± 0.0067
3,GATTAGGTTG,0.968 ± 0.072
4,GATTATAATC,1.01 ± 0.015
5,GATTATATAT,0.986 ± 0.015
6,GATTATTTAG,0.997 ± 0.019
7,GATTCATCTA,0.983 ± 0.029
8,GATTCATGTT,0.998 ± 0.013
9,GATTCATTAG,0.9925 ± 0.0015
10,GATTCCAAAA,0.975 ± 0.011
11,GATTCGGGGA,0.999 ± 0.014
12,GATTCGTTTT,1 ± 0.031
13,GATTCTTAAG,1 ± 0.022
14,GATTCTTGTC,1.01 ± 0.035
15,GATTGAACGG,0.997 ± 0.0086
16,GATTGAGAGC,0.9928 ± 0.005
17,GATTGATGGG,0.995 ± 0.024
18,GATTGCATGA,0.996 ± 0.024
19,GATTGCCAGG,1.05 ± 0.035
20,GATTGCGAGG,0.9887 ± 0.0059
21,GATTGCGCAT,1 ± 0.03
22,GATTGCTTGA,0.999 ± 0.034
23,GATTGGAGCG,1.008 ± 0.0031
24,GATTGGATGA,0.992 ± 0.045
25,GATTGGGCTG,0.984 ± 0.056
